Experimental data as given in article PMC10611586, “Molecular basis for ubiquitin/Fubi cross-reactivity in USP16 and USP36” (Nature Chemical Biology, 2023).

Assays:
Conditions in all cases: both partners purified
[1] = target: T1, ubiquitin-PA (untagged, wild type) (human, UniProt P0CG47 1-75, C-terminal propargylamine (PA) warhead); test: activity-based probe labelling (covalent conjugate), SDS-PAGE; purified protease 2.5 µM and probe 10 µM, 1 h at 37 °C; 20 mM Tris pH 8.0, 300 mM NaCl, 2 mM DTT, 5% glycerol; SDS-PAGE and Coomassie staining
T1 construct: ubiquitin, human, residues 1-75 of the 76-residue ubiquitin; also called Ub-PA; wild-type ubiquitin-PA

[2] = target: T2, Fubi-PA (untagged, wild type) (human, UniProt P62861 1-73, C-terminal propargylamine (PA) warhead); test: intact protein LC-MS; covalent USP36~probe complexes analysed by intact protein mass spectrometry
T2 construct: Fubi, human, residues 1-73 of the 74-residue Fubi; also called wild-type Fubi-PA; Fubi-based probe
T2 sequence (P62861 1-73): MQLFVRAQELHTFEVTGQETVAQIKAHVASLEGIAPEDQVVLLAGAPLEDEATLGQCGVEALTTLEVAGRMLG

[3] = target: T1, ubiquitin-PA (untagged, wild type); test: as above

B1: USP36^81–424 (catalytic domain, shorter construct) (enzyme, human, UniProt Q9P275 81-424, looked up)
chain: ARRQGSEHTYESCGDGVPAPQKVLFPTERLSLRWERVFRVGAGLHNLGNTCFLNATIQCLTYTPPLANYLLSKEHARSCHQGSFCMLCVMQNHIVQAFANSGNAIKPVSFIRDLKKIARHFRFGNQEDAHEFLRYTIDAMQKACLNGCAKLDRQTQATTLVHQIFGGYLRSRVKCSVCKSVSDTYDPYLDVALEIRQAANIVRALELFVKADVLSGENAYMCAKCKKKVPASKRFTIHRTSNVLTLSLKRFANFSGGKITKDVGYPEFLNIRPYMSQNNGDPVMYGLYAVLVHSGYSCHAGHYYCYVKASNGQWYQMNDSLVHSSNVKVVLNQQAYVLFYLRIP
notes: USP36, human, catalytic domain, residues 81-424; also called shorter USP36^81–424 construct; source: E. coli Rosetta2(DE3)pLacI, purified (HisTrap, 3C cleavage, cation exchange)
Does B1 bind [1]?
Result: binds

B2: USP42^70–446 (catalytic domain) (enzyme, human, UniProt Q9H9J4 70-446, looked up)
chain: DKSKPSPQKDQALGDGIAPPQKVLFPSEKICLKWQQTHRVGAGLQNLGNTCFANAALQCLTYTPPLANYMLSHEHSKTCHAEGFCMMCTMQAHITQALSNPGDVIKPMFVINEMRRIARHFRFGNQEDAHEFLQYTVDAMQKACLNGSNKLDRHTQATTLVCQIFGGYLRSRVKCLNCKGVSDTFDPYLDITLEIKAAQSVNKALEQFVKPEQLDGENSYKCSKCKKMVPASKRFTIHRSSNVLTLSLKRFANFTGGKIAKDVKYPEYLDIRPYMSQPNGEPIVYVLYAVLVHTGFNCHAGHYFCYIKASNGLWYQMNDSIVSTSDIRSVLSQQAYVLFYIRSHDVKNGGELTHPTHSPGQSSPRPVISQRVVTNKQ
notes: USP42, human, catalytic domain, residues 70-446; also called recombinant USP42; source: E. coli Rosetta2(DE3)pLacI, purified (HisTrap, 3C cleavage, reverse Ni-NTA, cation exchange)
Does B2 bind [1]?
Result: binds

B3: USP2^258–605 (catalytic domain) (enzyme, human, UniProt O75604 258-605, looked up)
chain: MNSKSAQGLAGLRNLGNTCFMNSILQCLSNTRELRDYCLQRLYMRDLHHGSNAHTALVEEFAKLIQTIWTSSPNDVVSPSEFKTQIQRYAPRFVGYNQQDAQEFLRFLLDGLHNEVNRVTLRPKSNPENLDHLPDDEKGRQMWRKYLEREDSRIGDLFVGQLKSSLTCTDCGYCSTVFDPFWDLSLPIAKRGYPEVTLMDCMRLFTKEDVLDGDEKPTCCRCRGRKRCIKKFSIQRFPKILVLHLKRFSESRIRTSKLTTFVNFPLRDLDLREFASENTNHAVYNLYAVSNHSGTTMGGHYTAYCRSPGTGEWHTFNDSSVTPMSSSQVRTSDAYLLFYELASPPSRM
notes: USP2, human, catalytic domain, residues 258-605; also called recombinant USP2; source: E. coli Rosetta2(DE3)pLacI, purified (HisTrap, 3C cleavage, SEC)
Does B3 bind [1]?
Result: binds

B4: USP36^81–461 (catalytic domain, longer construct) (enzyme, human, UniProt Q9P275 81-461, looked up)
chain: ARRQGSEHTYESCGDGVPAPQKVLFPTERLSLRWERVFRVGAGLHNLGNTCFLNATIQCLTYTPPLANYLLSKEHARSCHQGSFCMLCVMQNHIVQAFANSGNAIKPVSFIRDLKKIARHFRFGNQEDAHEFLRYTIDAMQKACLNGCAKLDRQTQATTLVHQIFGGYLRSRVKCSVCKSVSDTYDPYLDVALEIRQAANIVRALELFVKADVLSGENAYMCAKCKKKVPASKRFTIHRTSNVLTLSLKRFANFSGGKITKDVGYPEFLNIRPYMSQNNGDPVMYGLYAVLVHSGYSCHAGHYYCYVKASNGQWYQMNDSLVHSSNVKVVLNQQAYVLFYLRIPGSKKSPEGLISRTGSSSLPGRPSVIPDHSKKNIGNGI
notes: also called recombinant USP36; source: E. coli Rosetta2(DE3)pLacI, purified (HisTrap, 3C cleavage, cation exchange)
For B4, which “stoichiometry N” value [2] is on record?
Its value is 1.

What about the “stoichiometry N” value [3] of the same binder?
Its value is 1.

B5: USP16^191–823 (catalytic domain) (enzyme, human, UniProt Q9Y5T5 191-823, looked up)
chain: CQITVKGLSNLGNTCFFNAVMQNLSQTPVLRELLKEVKMSGTIVKIEPPDLALTEPLEINLEPPGPLTLAMSQFLNEMQETKKGVVTPKELFSQVCKKAVRFKGYQQQDSQELLRYLLDGMRAEEHQRVSKGILKAFGNSTEKLDEELKNKVKDYEKKKSMPSFVDRIFGGELTSMIMCDQCRTVSLVHESFLDLSLPVLDDQSGKKSVNDKNLKKTVEDEDQDSEEEKDNDSYIKERSDIPSGTSKHLQKKAKKQAKKQAKNQRRQQKIQGKVLHLNDICTIDHPEDSEYEAEMSLQGEVNIKSNHISQEGVMHKEYCVNQKDLNGQAKMIESVTDNQKSTEEVDMKNINMDNDLEVLTSSPTRNLNGAYLTEGSNGEVDISNGFKNLNLNAALHPDEINIEILNDSHTPGTKVYEVVNEDPETAFCTLANREVFNTDECSIQHCLYQFTRNEKLRDANKLLCEVCTRRQCNGPKANIKGERKHVYTNAKKQMLISLAPPVLTLHLKRFQQAGFNLRKVNKHIKFPEILDLAPFCTLKCKNVAEENTRVLYSLYGVVEHSGTMRSGHYTAYAKARTANSHLSNLVLHGDIPQDFEMESKGQWFHISDTHVQAVPTTKVLNSQAYLLFYERIL
notes: USP16, human, catalytic domain, residues 191-823; also called recombinant USP16; source: E. coli Rosetta2(DE3)pLacI, purified (HisTrap, 3C cleavage, reverse Ni-NTA, anion exchange, SEC)
Does B5 bind [1]?
Result: binds
